One assay addresses T1, activin-A (Mus musculus, UniProt Q04998).
T1 construct: from tissue; host or cells: serum of inhibin-alpha knockout (inh-KO) mice and wild-type littermates
T1 sequence (Q04998 309-424): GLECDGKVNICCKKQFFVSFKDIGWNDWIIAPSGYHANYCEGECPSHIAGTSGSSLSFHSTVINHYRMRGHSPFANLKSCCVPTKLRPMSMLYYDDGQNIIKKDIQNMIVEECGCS
The assay is described as follows: Serum activin-A levels in inh-KO mice (ELISA). The note with it: single dose 30 mg/kg SC. The class given is in vivo. As for the experimental part:
(§1) 12-week-old female and 8-week-old male inh-KO mice with fully established ovarian or testicular tumors received a single injection of PBS or sActRIIB (30 mg/kg, SC). As a control, age-matched wild-type littermates received a single injection of PBS. Ovarian and testicular organ weights were determined by necropsy 14 days after the injection.
All serum samples from ovarian cancer patients and healthy subjects were collected under informed consent and were purchased from Bioreclamation, Inc. The serum samples were diluted in buffer (DY995, R&D Systems) and pretreated overnight at 4° C. with 4 M urea (Sigma) to dissociate any protein bound to activin-A. The samples were then transferred to 96 well plates pre-coated with an activin-A monoclonal antibody. After 2 hr incubation at room temperature and a washing step (0.05% Tween 20 in DPBS), a biotin-labeled activin-A monoclonal antibody was added for 1 hr at room temperature. […] An acidic stopping solution (KPL) was added and the degree of enzymatic turnover of the substrate was determined by wavelength absorbance measurement at 450 nm. The absorbance measured is directly proportional to the concentration of activin-A present. A standard curve of absorbance versus activin-A concentration was used to determine the amount of Activin-A in the test sample. Serum activin-A levels in inh-KO mice were measured by using ELISA.
(In an ELISA, binding on a coated surface is turned into a signal by an enzyme label.)

Assay [1] has as its system ovarian tumors in inh-KO mice. The assay is described as follows: Ovarian tumor mass in inh-KO mice (necropsy). The class given is in vivo, mouse. The settings on record: 12-week-old female inh-KO mice; single dose 30 mg/kg SC; necropsy 14 days after injection; FIG. 3A, 3B. As for the experimental part:
as §1

The subject of a further assay is activin-A (βA) mRNA. Put plainly: Northern blot of activin-A (βA) mRNA in tumors of inh-KO mice. The class given is in vivo, mouse. The settings on record: increase over WT controls, FIG. 5A. The protocol:
as §1
Total RNA was isolated from individual tissue samples after homogenization in Trizol (Invitrogen). A pool of 10 μg RNA for each group containing equal amounts of total RNA isolated from individual animals was subjected to Northern blot analysis. The northern probes used for βA and Ang-2 were generated by using RT-PCR (Phusion, Biolabs). βA primer set: 5′-CCCTTGCTTTGGCTGAGAGGA-3′ and 5′-TC ACA GGT CGT CGT AGG TCG-3′; Ang-2 primer set: 5′-TGT GCC GGG GAG AAG AG and 5′-TACAGTAGTGGGTTGAGGTTC-3′. To normalize the expression, northern blot membranes were re-probed with β-actin.

Assay [2] concerns testicular tumors in inh-KO mice. The assay is described as follows: Light microscopy (H&E) of testes of inh-KO mice. The class given is in vivo, mouse. The settings on record: male inh-KO mice; FIG. 7B. The protocol:
as §1
Testes and ovaries from inh-KO mice were fixed with Zinc-formalin. Tissue sections were subjected to H&E staining and then examined with a Nikon Eclipse 90i microscope.

The subject of another assay is VEGF. The assay is described as follows: VEGF immunostaining in gonadal tumor sections of inh-KO mice. The class given is in vivo, mouse. The note with it: ovarian and testicular tumors of inh-KO mice; FIG. 8B. The protocol:
as §1
Zinc-formalin fixed paraffin tumor tissue sections of 4 μm in thickness were prepared. The sections were subjected to antigen retrieval by microwave 3 min in Unmask solution (Vector H-3300) followed by incubation in 10 μg/ml Proteinase-K for 20 min and in 1% H2O2 in dH2O for 10 min at room temperature. The sections were further incubated in 0.1% Tween-20 in PBS for 3 min to permeabilize the cell membrane and in goat serum for 30 min to block non-specific binding. The sections were then incubated at room temperature with specific primary antibody for 3 hours followed by incubation in biotinylated or fluorescently labeled secondary antibody. Substrate developed in Vector SG kit (SK-4700) or DAB and nuclear-counterstained in Vector Fast Red (H-3403) or in hematoxylin. The immunostained tissue sections were analyzed and photographed using a Nikon Eclipse 90i microscope equipped with DS-Ril camera. […]

Another assay relates to osteopontin. The assay is described as follows: Western blot of osteopontin in ovarian tumors of inh-KO mice. The settings on record: FIG. 8D. The class given is in vivo, mouse. The protocol:
as §1
Protein extracts were prepared from cell cultures or tissues in T-PER tissue protein extraction reagent (Pierce) containing a mixture of protease inhibitors (Roche). A pool of 50 μg total protein for each group containing equal amounts of protein extract isolated from individual animals was separated by NuPAGE 4-12% Bis-Tris gel (Invitrogen) and transferred to PVDF. The membranes were probed with primary antibodies against total Smad2, p-Smad2 or E-cadherin (1:1000; Cell Signaling), endoglin, osteopontin (1:500; R&D Systems), IGFBP-1, IGFBP-2 (1:500; Abcam) followed by HRP-conjugated secondary antibody (1:2000; Cell Signaling). The membranes were stripped and re-probed with antibody against α-tubulin (1:1000; Cell Signaling).

B1: sActRIIB: extracellular domain of human activin type-2B receptor fused to IgG2 Fc, expressed in CHO cells; sequence in the 26th table (protein)
chain: ETRWCIYYNANWELERTNQGLERCEGEQDKRLHCYASWRNSSGTIELVKKGCWLDDFNCYDRQECVATEENPQVYFCCCEGNFCNERFTHLPEAGGPEVTYEPPPTAPTGGGGSVECPPCPAPPVAGPSVFLFPPKPKDTLMISRTPEVTCVVVDVSHEDPEVQFNWYVDGVEVHNAKTKPREEQFNSTFRVVSVLTVVHQDWLNGKEYKCKVSNKGLPAPIEKTISKTKGQPREPQVYTLPPSREEMTKNQVSLTCLVKGFYPSDIAVEWESNGQPENNYKTTPPMLDSDGSFFLYSKLTVDKSRWQQGNVFSCSVMHEALHNHYTQKSLSLSPGK
modifications: left off: a dimerising Fc or GST
As to B1, in the assay with activin-A (inh-KO mice with established gonadal tumors, within one day after administration, FIG. 2A, 2B), the “serum activin-A levels” value was “reduced the elevated activin-A in the inh-KO mice to normal control levels”. Moreover, in the assay with activin-A (inh-KO mice), the “duration of activin-A-neutralizing effect” value is “persisted throughout the 14-day study period”. The ovarian tumor mass entry in assay [1] is given as “regressed rapidly to the sizes seen in the WT control mice”. The “βA transcripts in the tumors (Northern blot)” value in the assay on activin-A (βA) mRNA is recorded as “completely blocked”. Besides, in assay [2], the “testicular morphology (light microscopy)” value is “the testes were normal in size and filled with seminiferous tubules”. The “VEGF immunoreactivity in tumor sections” value in the assay with VEGF was “completely abolished the VEGF and Ang-1 inductions”. Further, in the assay with osteopontin, the “osteopontin induction (Western blot)” value is on record as “abolished completely”.

The record behind these values is patent publication US20140220033A1, “Administration of an Anti-Activin-A Compound to a Subject” (Santa Maria Biotherapeutics, Inc., priority 2013, published 2014).
